In the test the target is T1, Bacillus licheniformis subtilisin A (Bacillus licheniformis, UniProt P00780 106-379).
T1 sequence (looked up): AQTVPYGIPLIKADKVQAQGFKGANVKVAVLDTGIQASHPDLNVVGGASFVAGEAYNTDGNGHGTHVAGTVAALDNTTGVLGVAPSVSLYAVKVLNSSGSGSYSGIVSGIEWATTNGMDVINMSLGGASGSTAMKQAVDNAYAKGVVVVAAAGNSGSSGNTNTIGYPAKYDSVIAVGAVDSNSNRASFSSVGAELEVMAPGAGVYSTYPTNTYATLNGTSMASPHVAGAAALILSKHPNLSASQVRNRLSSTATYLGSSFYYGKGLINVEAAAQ
As to the kind of experiment: enzyme inhibition assay.

AEDCVGRKACTAEWYPVCGSDGVTYSNPCNFSAQQEQCDPNITIAHMGEC (natural protein, Cenchritis muricatus, UniProt P84755 1-50, looked up) [rCmPI-II R12A, alanine mutant at the P1 position of CmPI-II]: the “fold decrease of IC50 against rCmPI-II” value is 3 fold.

These data come from paper PMC8131977 (Biochemistry and Biophysics Reports, 2021).
